Results reported in patent US20220143213.

Key:
[1] = biological target: IgG present within human serum
[2] = biological target: IgG present within mouse serum
[3] = biological target: IgG present within primate serum
[4] = biological target: human intravenous immunoglobulin (IVIG)

B1: recombinant IdeZ (NEB P0770S or Genscript) (protein)
chain: MKTIAYPNKPHSLSAGLLTAIAIFSLASSNITYADDYQRNATEAYAKEVPHQITSVWSKGVTPLTPEQFRYNNEDVIHAPYLAHQGWYDITKAFDGKDNLLCGAATAGNMLHWWFDQNKTEIEAYLSKHPEKQKIIFNNQELFDLKAAIDTKDSQTNSQLFNYFRDKAFPNLSARQLGVMPDLVLDMFINGYYLNVFKTQSTDVNRPYQDKDKRGGIFDAVFTRGDQTTLLTARHDLKNKGLNDISTIIKQELTEGRALALSHTYANVSISHVINLWGADFNAEGNLEAIYVTDSDANASIGMKKYFVGINAHGHVAISAKKIEGENIGAQVLGLFTLSSGKDIWQKLS
IgG cleavage, SDS-PAGE (IgG from dog serum): IdeZ can cleave IgG from dog serum | IgG cleavage, reducing SDS-PAGE with Coomassie stain [1]: IgG present within serum was cleaved by IdeZ | IgG cleavage, reducing SDS-PAGE with Coomassie stain (Donors 1-5) [1]: IdeZ also cleaved IgG in serum samples from additional human patients (Donors 1-5) | IgG cleavage, reducing SDS-PAGE with Coomassie stain [2]: IgG present within serum was cleaved by IdeZ | IgG cleavage, reducing SDS-PAGE with Coomassie stain [3]: IgG present within serum was cleaved by IdeZ | IVIG cleavage in vitro, reducing SDS-PAGE with Coomassie stain [4]: IdeZ cleaved human IVIG in vitro

B2: recombinant GST-IdeZ (N-terminally GST tagged IdeZ fusion) (protein)
chain: B1 chain
IgG cleavage, SDS-PAGE with Coomassie stain (heavy chain cleavage product ~31 kDa) [1]: GST-IdeZ cleaved IgG present within human and primate serum | IgG cleavage, SDS-PAGE with Coomassie stain (heavy chain cleavage product ~31 kDa) [3]: GST-IdeZ cleaved IgG present within human and primate serum | IVIG cleavage in vitro, reducing SDS-PAGE with Coomassie stain [4]: IdeZ cleaved human IVIG in vitro
